Measurements as given in US20260022186A1 (UNIVERSITY OF CHICAGO, published 2026).
Numbering of substitutions follows the chain as printed.

Legend:
[1] = target: T1, Full-length human NT5E (recombinant, secreted) (human); assay: SPR, NT5E on NTA chip via His-tag, no ATP
T1 chain: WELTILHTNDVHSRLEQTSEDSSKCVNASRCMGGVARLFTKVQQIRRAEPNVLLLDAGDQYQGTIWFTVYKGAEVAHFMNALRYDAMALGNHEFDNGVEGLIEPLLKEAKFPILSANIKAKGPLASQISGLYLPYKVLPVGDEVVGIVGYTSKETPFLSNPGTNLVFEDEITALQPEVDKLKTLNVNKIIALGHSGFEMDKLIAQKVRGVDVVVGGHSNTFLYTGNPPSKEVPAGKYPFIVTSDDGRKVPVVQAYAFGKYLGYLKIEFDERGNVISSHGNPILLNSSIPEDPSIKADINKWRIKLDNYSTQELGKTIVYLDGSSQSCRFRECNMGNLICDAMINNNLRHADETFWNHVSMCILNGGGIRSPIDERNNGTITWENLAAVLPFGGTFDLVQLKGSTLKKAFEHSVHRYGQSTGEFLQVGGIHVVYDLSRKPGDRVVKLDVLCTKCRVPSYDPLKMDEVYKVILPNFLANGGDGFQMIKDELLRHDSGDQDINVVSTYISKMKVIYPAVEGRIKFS

[2] = target: T2, hNT5EFF (F417A/F500A mutant of hNT5E) (human, UniProt P21589 27-549); assay: cell-based or functional assay
T2 sequence (looked up): T1 chain with A350T, T353M, F391A, F474A

[3] = target: hNT5EDF (substrate binding knock-out variant of human NT5E) (human); assay: cell-based or functional assay
[4] = target: T1, Full-length human NT5E (recombinant, …); assay: cell-based or functional assay
[5] = target: T3, Full-length murine NT5E (recombinant, secreted) (murine); assay: protein ELISA, immobilised biotinylated NT5E, 1 mM ATP; protein ELISA, Fab, 1 mM ATP (EC50ATP)
T3 chain: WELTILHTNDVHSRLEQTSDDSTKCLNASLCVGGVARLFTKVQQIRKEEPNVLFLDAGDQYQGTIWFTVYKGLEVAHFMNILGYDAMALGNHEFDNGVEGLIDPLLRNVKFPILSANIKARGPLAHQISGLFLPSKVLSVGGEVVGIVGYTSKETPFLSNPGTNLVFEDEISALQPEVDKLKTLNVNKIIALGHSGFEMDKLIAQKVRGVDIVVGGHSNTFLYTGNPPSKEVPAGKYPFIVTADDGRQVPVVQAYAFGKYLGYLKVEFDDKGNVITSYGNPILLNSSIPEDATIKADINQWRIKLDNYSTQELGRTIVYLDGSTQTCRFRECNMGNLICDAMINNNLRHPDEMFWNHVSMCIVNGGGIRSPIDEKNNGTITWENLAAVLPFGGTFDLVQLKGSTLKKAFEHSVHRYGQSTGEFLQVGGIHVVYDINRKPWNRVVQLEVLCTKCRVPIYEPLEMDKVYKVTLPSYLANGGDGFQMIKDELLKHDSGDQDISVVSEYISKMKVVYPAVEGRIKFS

[6] = target: T1, Full-length human NT5E (recombinant, …); assay: SPR, NT5E on NTA chip via His-tag, 1 mM ATP
[7] = target: T3, Full-length murine NT5E (recombinant, …); assay: SPR, NT5E on NTA chip via His-tag, 1 mM ATP; SPR, Fab, 1 mM ATP
[8] = target: T1, Full-length human NT5E (recombinant, …); assay: protein ELISA, immobilised biotinylated NT5E, 1 mM ATP
[9] = target: T1, Full-length human NT5E (recombinant, …); assay: SPR, no ATP
[10] = target: T3, Full-length murine NT5E (recombinant, …); assay: SPR, no ATP
[11] = target: T1, Full-length human NT5E (recombinant, …); assay: SPR, 1 mM ATP
[12] = target: T3, Full-length murine NT5E (recombinant, …); assay: SPR, 1 mM ATP
[13] = target: T1, Full-length human NT5E (recombinant, …); assay: protein ELISA, immobilised biotinylated NT5E, no ATP (apo)
[14] = target: T3, Full-length murine NT5E (recombinant, …); assay: protein ELISA, immobilised biotinylated NT5E, 1 mM ATP
[15] = target: T3, Full-length murine NT5E (recombinant, …); assay: SPR, no ATP; footnote *: data generated poor fits

B1: 1789 Fab (Fab, V domains shown)
VH: EVQLVESGGGLVQPGGSLRLSCAASGFNVSYSSIHWVRQAPGKGLEWVASISSSSGYTYYADSVKGRFTISADTSKNTAYLQMNSLRAEDTAVYYCARNYWGWYPFYYFAFDYWGQGTLVTV
VL: DIQMTQSPSSLSASVGDRVTITCRASQSVSSAVAWYQQKPGKAPKLLIYSASSLYSGVPSRFSGSRSGTDFTLTISSLQPEDFATYYCQQGWDYPITFGQGTKVEIKR
- Kd [1]: 760 nM
- koff [1]: 0.044 s⁻¹
- kon [1]: 57000 M⁻¹ s⁻¹
- TM of NT5E by differential scanning fluorimetry with 1789 Fab, 1 mM ATP [2]: 46 ° C.
- TM of NT5E by differential scanning fluorimetry with 1789 Fab, No ATP [2]: 47 ° C.
- TM of NT5E by differential scanning fluorimetry with 1789 Fab, 1 mM ATP [3]: 46 ° C.
- TM of NT5E by differential scanning fluorimetry with 1789 Fab, No ATP [3]: 48 ° C.
- TM of NT5E by differential scanning fluorimetry with 1789 Fab, 1 mM ATP [4]: 66 ° C.
- TM of NT5E by differential scanning fluorimetry with 1789 Fab, No ATP [4]: 48 ° C.
- EC50 [5]: 132 nM
- Kd [6]: 42 nM
- koff [6]: 0.0073 s⁻¹
- kon [6]: 170000 M⁻¹ s⁻¹
- Kd [7]: 160 nM
- koff [7]: 0.014 s⁻¹
- kon [7]: 85000 M⁻¹ s⁻¹
- EC50 [8]: 37 nM

B2: 1789 AM42 Fab (Fab, V domains shown)
VH: B1 VH with S50K, S52R, S53G, S54G, S55H, G56Q, Y57D, Y59H
VL: B1 VL
- Kd [9]: 38 nM
- koff [9]: 0.0067 s⁻¹
- kon [9]: 180000 M⁻¹ s⁻¹
- Kd [10]: 63 nM
- koff [10]: 0.012 s⁻¹
- kon [10]: 190000 M⁻¹ s⁻¹
- Kd [11]: 11 nM
- koff [11]: 0.0036 s⁻¹
- kon [11]: 320000 M⁻¹ s⁻¹
- Kd [12]: 12 nM
- koff [12]: 0.0029 s⁻¹
- kon [12]: 250000 M⁻¹ s⁻¹

B3: 1789 AM32 Fab (Fab, V domains shown)
VH: B1 VH with S50R, S52R, S53G, S54N, S55E, Y57D
VL: B1 VL
notes: also called Fab32
- Kd [9]: 86 nM
- koff [9]: 0.0091 s⁻¹
- kon [9]: 110000 M⁻¹ s⁻¹
- Kd [10]: 150 nM
- koff [10]: 0.011 s⁻¹
- kon [10]: 78000 M⁻¹ s⁻¹
- Kd [11]: 15 nM
- koff [11]: 0.0042 s⁻¹
- kon [11]: 270000 M⁻¹ s⁻¹
- Kd [12]: 15 nM
- koff [12]: 0.0028 s⁻¹
- kon [12]: 190000 M⁻¹ s⁻¹

B4: 1789 IgG (antibody, V domains shown)
VH: EVQLVESGGGLVQPGGSLRLSCAASGFNVSYSSIHWVRQAPGKGLEWVASISSSSGYTYYADSVKGRFTISADTSKNTAYLQMNSLRAEDTAVYYCARNYWGWYPFYYFAFDYWGQGTLVTVSS
VL: B1 VL
- EC50 [13]: 2.14 nM
- EC50 [8]: 0.86 nM
- EC50 [14]: 1.14 nM

B5: 1789 AM39 Fab (Fab, V domains shown)
VH: B1 VH with S52R, S53G, S54A, S55G, G56S, Y57D, Y59R
VL: B1 VL
- Kd [9]: 35 nM
- koff [9]: 0.0099 s⁻¹
- kon [9]: 280000 M⁻¹ s⁻¹
- koff [10]: 0.013 s⁻¹
- kon [10]: 140000 M⁻¹ s⁻¹
- Kd [15]: 99 nM
- Kd [11]: 7.9 nM
- koff [11]: 0.0039 s⁻¹
- kon [11]: 490000 M⁻¹ s⁻¹
- Kd [12]: 12 nM
- koff [12]: 0.0035 s⁻¹
- kon [12]: 290000 M⁻¹ s⁻¹
